The target of series [1] is DD-myc-F1-IR/AA (Toxoplasma gondii). Description: co-IP; two sequential anti-myc immunoprecipitations (48 hrs Shld-1); IPs and flow throughs blotted, bands quantified with ImageJ and normalised to the input.
Series [2] addresses DD-myc-F2-R/A (Toxoplasma gondii). The description is as above.
Series [3] concerns the molecule itself. Nature of the series: SEC; purified FH2 domains on Superose 6 10/300 GL, 0.4 ml/min, PBS-NaCl 0.15 M buffer, to determine their oligomeric state.

For “Toxoplasma gondii Formin 1 (TgFRM1), endogenous (natural protein)”, the percent of the input formin left in the second flow through after two anti-myc IPs (not co-precipitated) in series [1] was found to be 30%.
For the molecule “Toxoplasma gondii Formin 2 (TgFRM2), endogenous (natural protein)”, in series [2], the percent of the input formin left in the second flow through after two anti-myc IPs (not co-precipitated) is 17%.

B1: His-F1L (FH2 domain of TgFRM1 with an N-terminal 48 amino acid proline-rich extension) (domain or fragment)
chain: KKPEAPKKEEAKPKPEAKKEAPKKGPPGGKGGKGPPGKGPPKGKGKGPKKKGEGGLKVGKKDEGKTKRFFWDPIFEDEIPGTIFMKKPNMVLKLQDVEETFAKVVAKKKTESKKPKIIQLLPDSKRAYNMSIALSKFNNYSYQQLREAIIDLDPKILTIEATETLLNFVPTGEENQVVKEYINSGGDLKLVDKPEQFVAAMLGVPLMKQRLEAHAFALNFREAYSDAYTPLENMADACDAIDDSQNLKIVLFAILELGNALNEGDPQRGGAAGFKPTTLAKLQEIRTTTKPVRTMLQYICDIIWEQQPTALNIYEDLKICDKAQRVDMQGIEGRISNLKAGLTKVKNTLEAAKKGNESTGVMGDRDPLRNIMDEFLIEAEPKIKQLDDFLVQVQNQFLQTCHYSGYPDKDVKKIKPDELFKQVAGFARQVDAIRKQKQEIADRELKRKEAEAKRAGKGLKSTAVKKVGMK
notes: source: E. coli, purified (Ni-NTA under native conditions)
Consider B1, for which the “stoichiometry N” value in series [3] turned out to be 2.

B2: His-F2 (FH2 domain of TgFRM2) (domain or fragment, Toxoplasma gondii, UniProt D0V3Y1 3317-4043, looked up)
chain: TGSYPGASDKSQQTFSAGAPSSGTNARTESTPAGAGETGASGEAKAPAAPKKKAMPPPPPPGKTPGDASKAPGGPPGKGKAPPLPKGKKAPQLGKAPKAGGPPKKADAVDPMTLPLRRKIHWKTLGKEQIEGTVFKELEGDPAIPDMFDPEAISRLFSATLTVKSDEAAVKAAPKKAEEKKHTILDNKRAQNVAIVLARLPLSLDAIAQKMLHLDTEGLTVDILQKVEQVAPTPEELVKFREYEELKKTENTGDLRDVEKKMTALIPVTRLSSRVRVMQTALQWEKVVEEIEKQLALLCKAADEAHNSRKFRSLLQAVLQWGNYVNHGVKKAPKGQEVSSESEARKAETTSPTEGDRRENRQTLQQLPPILLVKELPTKGFKLASLEKLMEFRTTVDKSICSLHFIISNLIVSLPELDILDLASDMPSLEAAARLSDESIDAPVSYLRNEAAFLLSQIHAIKQVLAAKDATATDPSGAPRPSGSKPQTDEALHAELTRLQKLHGEMVLTLERLRESYLNCKAVIGEVGRFYGEDGPKKPSAGKHKLKGQAVSVDAGGSATAGGVIAEWEFGLLDQSPFELLFSILSTCRQGLRDVQANPRKYAILLVGRFASEEEKWKLLKFHIDNSLANRKRVTGCRGSDAEQVAGRPQDADKAGSSVVSSPRTTPRGSIASRGGKKLIVGRHGPEAGGTPQIPRGPPKSDNGSFTETQRLGRGLSEGSEDALSSP
notes: also called F2-WT; His-GST-F2; source: E. coli, purified (Ni-NTA under native conditions)
For B2, the “stoichiometry N” value in series [3] was determined as 2.

These data come from article PMC2951370, “Concerted Action of Two Formins in Gliding Motility and Host Cell Invasion by Toxoplasma gondii” (PLoS Pathogens, 2010).
